The target of assay [1] is T1, rat CD5 antigen (rat equivalent of CD5) present on rat T cells (rat) (UniProt P51882).
T1 sequence (looked up): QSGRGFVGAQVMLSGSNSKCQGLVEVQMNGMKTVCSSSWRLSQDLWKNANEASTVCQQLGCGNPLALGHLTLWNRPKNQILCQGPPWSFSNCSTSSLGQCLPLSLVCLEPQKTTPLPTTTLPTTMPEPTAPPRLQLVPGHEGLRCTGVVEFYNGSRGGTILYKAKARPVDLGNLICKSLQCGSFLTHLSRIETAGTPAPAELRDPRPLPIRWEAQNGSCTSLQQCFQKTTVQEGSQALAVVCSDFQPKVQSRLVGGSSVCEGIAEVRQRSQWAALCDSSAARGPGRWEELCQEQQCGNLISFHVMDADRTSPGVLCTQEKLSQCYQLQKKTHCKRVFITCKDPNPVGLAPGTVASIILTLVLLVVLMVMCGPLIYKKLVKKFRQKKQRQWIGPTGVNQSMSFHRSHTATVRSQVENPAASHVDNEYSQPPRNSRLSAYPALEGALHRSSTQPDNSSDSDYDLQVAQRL
Nature of the assay: flow cytometry of rat spleen cells 3 h after 0.5 mg/kg i.v., PE anti-mouse IgG1 detection. For orientation: A flow cytometer gives signals particle by particle.

Assay [2] deals with T1, rat CD5 antigen (rat equivalent of CD5) present on rat T cells (rat). Kind of assay: flow cytometry of rat lymph node cells 3 h after 0.5 mg/kg i.v., PE anti-mouse IgG1 detection.
Assay [3] shares this target. Nature of the assay: flow cytometry of rat blood cells 3 h after 0.5 mg/kg i.v., PE anti-mouse IgG1 detection.
The target is the same in assay [4]. Kind of assay: flow cytometry of rat spleen cells 3 h after 0.5 mg/kg i.v., PE anti-mouse IgG1 detection (isotype matched negative control).
Assay [5] has the same target. Nature of the assay: flow cytometry of rat blood cells 3 h after 0.5 mg/kg i.v., PE anti-mouse IgG1 detection (isotype matched negative control).
Assay [6] has the same target. Nature of the assay: flow cytometry of rat lymph node cells 3 h after 0.5 mg/kg i.v., PE anti-mouse IgG1 detection (isotype matched negative control).
The next assay has as its target T2, human CD5 antigen (human, UniProt P06127 25-495).
T2 construct: whole, on cells; also called gp67; CD5 found on Molt-4M
T2 sequence (looked up): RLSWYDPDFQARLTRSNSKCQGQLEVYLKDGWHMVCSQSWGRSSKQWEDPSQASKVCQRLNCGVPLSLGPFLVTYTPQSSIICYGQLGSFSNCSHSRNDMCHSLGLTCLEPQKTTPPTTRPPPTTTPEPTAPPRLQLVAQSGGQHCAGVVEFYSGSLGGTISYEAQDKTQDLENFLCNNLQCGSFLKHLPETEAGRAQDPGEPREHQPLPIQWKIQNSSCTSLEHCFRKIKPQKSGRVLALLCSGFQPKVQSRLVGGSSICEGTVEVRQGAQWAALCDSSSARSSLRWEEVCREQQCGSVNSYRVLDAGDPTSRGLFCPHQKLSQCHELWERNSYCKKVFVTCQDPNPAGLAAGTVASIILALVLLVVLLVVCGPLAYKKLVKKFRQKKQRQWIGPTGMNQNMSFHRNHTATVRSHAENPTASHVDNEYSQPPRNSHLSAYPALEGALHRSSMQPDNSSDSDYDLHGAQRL
Nature of the assay: competitive binding on Molt4-M cells, single point at 0.54 nM, competitor 125I-cH65 IgG. The procedure: Molt4-M cells, which express CD5 on their surface, were plated into 96 well V-bottom plates at a density of 3×10⁵ cells per well and pelleted by centrifugation. The medium was decanted, and 100 μl of purified cH65 IgG at final concentrations from 200 nM to 0.0017 nM (diluted in 3-fold steps) in “BHD” [DMEM (Dulbecco's Modified Eagle's Medium)+1% BSA+10 mM Hepes, pH 7.2] (BHD) was added to each well, followed by 100 μl of ¹²⁵I-cH65 IgG (final concentration=0.1 nM) in BHD. For single point determinations, 50-100 μl of the Centricon® concentrates were added to the wells as follows: hH65 (final concentration=0.54 nM), cH65 (final concentration=0.22 nM), CM+purified cH65 IgG (final concentration=30 nM) and CM alone. These were followed by addition of ¹²⁵I-cH65 IgG (final concentration=0.1 nM). Binding was allowed to proceed for 5 hours at 4° C. At the end of 5 hours, binding was terminated by three washes with ice cold BHD using centrifugation to pellet cells. Radioactivity was determined by solubilizing bound ¹²⁵I-cH65 IgG with 1N NaOH and counting in a Beckman Gamma 8000 (Beckman Instruments, Fullerton, Calif.).

Turning to OX19 MoAb (antibody), the % of CD4 cells that are also positive for mouse IgG1 was 84.8% in assay [1], 96.2% in assay [2] and 96.2% in assay [3]. For the same molecule, the values for the % of CD8 cells that are also positive for mouse IgG1 in assay [1], in assay [2] and in assay [3] were 73.6%, 96.8% and 70.2%, respectively.

B1: MoAb H65 (murine monoclonal antibody produced by cell line XMMLY-H65) (antibody, V domains shown)
VH: QIQLVQSGPELKKPGETVKISCKASGYTFTNYGMNWVKQAPGKGLRWMGWINTHTGEPTYADDFKGRFAFSLETSASTAYLQINNLKNEDTATYFCTRRGYDWYFDVWGAGTTVTVSS
VL: DIKMTQSPSSMYASLGERVTITCKASQDINSYLSWFQQKPGKSPKTLIYRANRLVDGVPSRFSGSGSGQDYSLTISSLDYEDMGIYYCQQYDESPWTFGGGTKLEIK
For the molecule B1, the % of CD4 cells that are also positive for mouse IgG1 in assay [4] was 14.8%; in assay [5] it was 6.7%; in assay [6], 4.2%. Besides, the % of CD8 cells that are also positive for mouse IgG1 in assay [4] is 20.6%; in assay [5], 5.7%; in assay [6], 6.5%.

B2: humanized H65 IgG (low-risk modified H65) (antibody, V domains shown)
VH: QIQLVQSGPGLKKPGGSVRISCAASGYTFTNYGMNWVKQAPGKGLRWMGWINTHTGEPTYADDFKGRFTFSLDTSKSTAYLQINSLRAEDTATYFCTRRGYDWYFDVWGQGTTVTVSS
VL: DIQMTQSPSSMSASLGDRVTITCRASQDINSYLSWFQQKPGKSPKTLIYRANRLVDGVPSRFSGSGSGTDYTLTISSLQYEDFGIYYCQQYDESPWTFGGGTKLEIK
notes: Whole IgG transiently expressed in CHO-K1 from vectors pING4612 (heavy) and pING4614 (light); Human constant regions; also called hH65; H65 antibody modified according to the methods of the present invention
For B2, the binding result with human CD5 antigen is on record as “binds”.

Source of the values: patent US20040005630A1 (published 2004).
